According to paper PMC6557641:

Target: Chicken skeletal muscle actin, assembled into filaments (F-actin) (chicken) (UniProt P68139)
Assay: TIRF microscopy of labeled protein on actin filaments; four-color TIRFM; 1.5 μM Mg-ATP actin (15% Alexa 488-labeled), 50 nM Fim1 (Alexa 405-labeled), 2.5 μM Cdc8 (TMR-labeled), without or with 500 nM Ain1 (Cy5-labeled); fluorescence on two-filament bundles; room temperature

fold of Cdc8 on F-actin bundles with Fim1 and Ain1 against with Fim1 alone: > 100 fold
Substance: acetylation mimic tropomyosin AlaSer-Cdc8, fluorescently labeled (TMR or Cy5) (natural protein)
